{"source": "patent US12098164", "about": "(KOREA UNIVERSITY RESEARCH AND BUSINESS FOUNDATION, dated 2024)", "target": "human serum albumin (HSA) (human, UniProt P02768 25-609)", "sequence (P02768 25-609 limits assumed)": "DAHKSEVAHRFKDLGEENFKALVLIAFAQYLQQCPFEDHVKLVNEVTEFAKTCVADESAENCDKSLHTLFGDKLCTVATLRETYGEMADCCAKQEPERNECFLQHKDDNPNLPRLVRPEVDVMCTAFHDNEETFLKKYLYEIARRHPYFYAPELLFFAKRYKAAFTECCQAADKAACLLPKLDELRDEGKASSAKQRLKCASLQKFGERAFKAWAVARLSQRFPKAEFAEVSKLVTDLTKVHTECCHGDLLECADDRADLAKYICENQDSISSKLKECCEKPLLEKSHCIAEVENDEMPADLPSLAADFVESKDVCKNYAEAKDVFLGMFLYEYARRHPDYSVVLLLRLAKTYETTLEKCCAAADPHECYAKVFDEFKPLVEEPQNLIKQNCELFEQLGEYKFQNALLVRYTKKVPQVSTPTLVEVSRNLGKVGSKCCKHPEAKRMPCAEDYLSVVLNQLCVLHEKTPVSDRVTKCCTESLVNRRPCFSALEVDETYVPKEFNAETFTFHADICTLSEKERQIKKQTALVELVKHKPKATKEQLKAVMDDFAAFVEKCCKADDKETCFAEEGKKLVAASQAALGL", "assay": "ELISA, HSA coated at 2 ug/ml, anti-His tag primary antibody and HRP secondary antibody, absorbance at 450 nm", "data": [{"binder": "hepatitis B virus capsid protein nanoparticles (HBVC) (other, also called HBVC (aff-, ABP-)) HHHHHHDIDPYKEFGASVELLSFLPSDFFPSIRDLLDTASALYREALESPEHCSPHHTALRQAILCWGELMNLATWVGSNLEDPASRELVVSYVNVNMGLKIRQLLWFHISCLTFGRETVLEYLVSFGVWIRTPPAYRPPNAPILSTLPETTVV", "values": [{"measurement": "binding result", "value": "no binding (tested: 0.001 to 1.5 mg/ml tested)"}]}]}
